US20260009051A1

Key:
Test in all cases: FACS, mAb 5 µg/ml, CD20 variant on transfected HEK293 cells
[1] = biological target: A170P
[2] = biological target: A170S
[3] = biological target: E168A
[4] = biological target: E174D
[5] = biological target: E174Y
[6] = biological target: K175F
[7] = biological target: K175R
[8] = biological target: N171A
[9] = biological target: N171H
[10] = biological target: N176A
[11] = biological target: P172A
[12] = biological target: S173A
[13] = biological target: S177A
Sequence of S177A (CD20, as listed by the source S177A S177A limits assumed): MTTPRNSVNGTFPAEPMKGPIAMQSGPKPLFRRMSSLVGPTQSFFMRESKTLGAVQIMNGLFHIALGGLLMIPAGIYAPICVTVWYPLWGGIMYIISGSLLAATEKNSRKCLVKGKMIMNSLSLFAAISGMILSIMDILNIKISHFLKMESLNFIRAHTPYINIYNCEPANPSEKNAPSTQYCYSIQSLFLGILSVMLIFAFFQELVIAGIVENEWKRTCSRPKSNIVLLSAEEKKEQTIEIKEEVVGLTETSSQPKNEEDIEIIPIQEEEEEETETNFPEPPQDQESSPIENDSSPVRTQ

[14] = biological target: WT
Sequence of WT (CD20, as listed by the source limits assumed): as the sequence (CD20, as listed by the source S177A S177A limits assumed) above, with A177S counted along it

Sequence of E174Y (CD20, as listed by the source E174Y E174Y limits assumed): as the sequence (CD20, as listed by the source S177A S177A limits assumed) above, with E174Y, A177S counted along it
Sequence of S173A (CD20, as listed by the source S173A S173A limits assumed): as the sequence (CD20, as listed by the source S177A S177A limits assumed) above, with S173A, A177S counted along it
Sequence of P172A (CD20, as listed by the source P172A P172A limits assumed): as the sequence (CD20, as listed by the source S177A S177A limits assumed) above, with P172A, A177S counted along it
Sequence of E174D (CD20, as listed by the source E174D E174D limits assumed): as the sequence (CD20, as listed by the source S177A S177A limits assumed) above, with E174D, A177S counted along it
Sequence of A170P (CD20, as listed by the source A170P A170P limits assumed): as the sequence (CD20, as listed by the source S177A S177A limits assumed) above, with A170P, A177S counted along it
Sequence of K175R (CD20, as listed by the source K175R K175R limits assumed): as the sequence (CD20, as listed by the source S177A S177A limits assumed) above, with K175R, A177S counted along it
Sequence of E168A (CD20, as listed by the source E168A E168A limits assumed): as the sequence (CD20, as listed by the source S177A S177A limits assumed) above, with E168A, A177S counted along it
Sequence of K175F (CD20, as listed by the source K175F K175F limits assumed): as the sequence (CD20, as listed by the source S177A S177A limits assumed) above, with K175F, A177S counted along it
Sequence of A170S (CD20, as listed by the source A170S A170S limits assumed): as the sequence (CD20, as listed by the source S177A S177A limits assumed) above, with A170S, A177S counted along it
Sequence of N176A (CD20, as listed by the source N176A N176A limits assumed): as the sequence (CD20, as listed by the source S177A S177A limits assumed) above, with N176A, A177S counted along it
Sequence of N171H (CD20, as listed by the source N171H N171H limits assumed): as the sequence (CD20, as listed by the source S177A S177A limits assumed) above, with N171H, A177S counted along it
Sequence of N171A (CD20, as listed by the source N171A N171A limits assumed): as the sequence (CD20, as listed by the source S177A S177A limits assumed) above, with N171A, A177S counted along it

Row | % of best binder [1] | % of best binder [2] | % of best binder [3] | % of best binder [4] | % of best binder [5] | % of best binder [6] | % of best binder [7] | % of best binder [8] | % of best binder [9] | % of best binder [10] | % of best binder [11] | % of best binder [12] | % of best binder [13] | % of best binder [14] | Substance
1 | 38% | 55% | 48% | 57% | 51% | 46% | 53% | 46% | 58% | 2% | 31% | 55% | 40% | 59% | B1 (antibody)
2 | 62% | 60% | 66% | 67% | 80% | 71% | 71% | 82% | 86% | 67% | 69% | 73% | 68% | 77% | m7D8 (antibody)
3 | 41% | 84% | 83% | 9% | 13% | 94% | 89% | 100% | 100% | 88% | 96% | 98% | 79% | 82% | m11B8 (antibody)
4 | 42% | 60% | 52% | 52% | 29% | 67% | 65% | 3% | 5% | 65% | 25% | 2% | 63% | 77% | mRTX (antibody)
